# Measured values taken from US20050123936A1, “Method, composition, and kit to design, evaluate, and/or test compounds that modulate regulatory factor binding to nucleic acids” (priority 2003, published 2005).
# Entries after “also recorded” stand apart in the source; their conditions may differ. Ends that are not written are not given here.
# Tests used:
# Exd = molecular target: T1, Exd (Drosophila melanogaster, UniProt P40427); experiment: Example 7 EMSA: recruitment of Exd by linker compounds; type: binding; settings: for positioning of the test compound with respect to its hydrophobic docking site on the surface of Exd: short linkers (<4 Å when fully extended); for ability to recruit Exd: 4° C.
# T1 construct: comprising the homeodomain and the extended fourth helix (residues 238-324); made in house
# T1 sequence (P40427 238-324): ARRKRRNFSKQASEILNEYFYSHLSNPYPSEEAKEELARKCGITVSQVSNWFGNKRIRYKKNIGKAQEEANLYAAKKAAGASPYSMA
# Procedure: The assays were performed with 50 nM of the conjugate pre-incubated with target DNA (thus to bind the anchor moiety to the target nucleic acid) followed by the addition and incubation with Exd.
# To determine the effects of longer linker on binding, the ability of compounds using linkers 1, 2 and 4 to recruit Exd at three different temperatures was investigated.
# [1] = molecular target: T2, Extradenticle (Exd), homeodomain plus extended fourth helix (Drosophila) (UniProt P40427); experiment: EMSA; settings: apparent, with polyamide-FYPWM conjugate
# T2 sequence: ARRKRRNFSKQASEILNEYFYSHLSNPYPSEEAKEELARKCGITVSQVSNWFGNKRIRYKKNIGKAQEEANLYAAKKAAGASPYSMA
# [2] = system: TGGCCA mismatch site on 250-bp EcoRI/PvuII restriction fragment from plasmid pDEH9; experiment: Quantitative DNase I footprint titration, mismatch site TGGCCA; type: binding
# Procedure: (§1) Quantitative DNaseI footprinting can be used to determine the equilibrium association constants for binding to match and mismatch sites. Footprinting experiments are generally performed on 3′- and/or 5′-^32P end restriction fragments derived from plasmids. 3′-shifted cleavage patterns are consistent with location of the polyamide in the minor groove. Typical reaction conditions are: 10 mM Tris-HCl, 10 mM KCl, 10 mM MgCl2, 5 mM CaCl2, pH 7.0, and 22° C. See Brenowitz et al. (1986). Methods Enzymol. 130:132-181; Fox & Waring (1984) Nucleic Acids Res. 12:9271-9285; and Brenowitz et al. (1986) Proc. Natl. Acad. Sci. U.S.A. 83: 8462-8466.
# (§2) DNase I Footprinting: Dissociation constants for the DNA binding of compounds 1, 2 and 3 were obtained following published protocols. All reactions were carried out in 400 μL total volume employing 20 kcpm of a 3′-radiolabelled 250-bp restriction fragment from the plasmid pDEH9 (FIG. 1a) (SEQ. ID. NO: 4). No carrier DNA was used in the equilibration, and the solutions were allowed to equilibrate for 12 h at 22° C. in TKMC buffer (10 mM TRIS, 10 mM KCl, […], 5 mM CaCl2 pH 7.0) prior to the DNase I digestion. Reaction products (8 kcpm) were resolved on denaturing 8% polyacrylamide sequencing gels run at 55 W.
# (§3) FIGS. 1b, 1c, and 1d are quantitative DNAse I footprint titration experiments for compounds 1, 2 and 3 on the 3′^−32 P-labeled 250-bp EcoRI/PvuII restriction fragment from the plasmid pDEH9. Lane 1: Intact DNA. Lane 2: A-reaction. Lane 3: G-reaction. Lane 4: DNAse 1 standard.
# (§4) The DNA-binding properties of the compounds 1-3 were investigated by quantitative DNase 1 footprinting assays. The equilibrium binding constants of each of the compounds for a matched versus three single base pair mismatch sites is compiled in Table 1. The lower strand sequence is shown in the header. Mismatched base pairs are underlined. The residue under the YPWM peptide is in bold. Relative specificities are given in square brackets.
# [3] = molecular target: TGGTCA matched site on 250-bp EcoRI/PvuII restriction fragment from plasmid pDEH9; experiment: Quantitative DNase I footprint titration, matched site; type: binding; settings: 12 h at 22° C., TKMC buffer pH 7.0, read-out: Equilibrium Dissociation Constants Kd, TGGTCA
# Procedure: as §1
# DNase I Footprinting: Dissociation constants for the DNA binding of compounds 1, 2 and 3 were obtained following published protocols. All reactions were carried out in 400 μL total volume employing 20 kcpm of a 3′-radiolabelled 250-bp restriction fragment from the plasmid pDEH9 (FIG. 1a) (SEQ. ID. NO: 4). […]
# FIGS. 1b, 1c, and 1d are quantitative DNAse I footprint titration experiments for compounds 1, 2 and 3 on the 3′^−32 P-labeled 250-bp EcoRI/PvuII restriction fragment from the plasmid pDEH9. […]
# The DNA-binding properties of the compounds 1-3 were investigated by quantitative DNase 1 footprinting assays. […]
# [4] = system: AGCTCA mismatch site on 250-bp EcoRI/PvuII restriction fragment from plasmid pDEH9; experiment: Quantitative DNase I footprint titration, mismatch site AGCTCA; type: binding
# Procedure: as §1, §2, §3, §4
# [5] = system: TGGGCA mismatch site on 250-bp EcoRI/PvuII restriction fragment from plasmid pDEH9; experiment: Quantitative DNase I footprint titration, mismatch site TGGGCA; type: binding
# Procedure: as §1, §2, §3, §4
# [6] = molecular target: T3, extradenticle (Exd) protein (residues 238-324) (Drosophila melanogaster, UniProt P40427); experiment: EMSA: recruitment of Exd to its cognate DNA site by polyamides 1-3; type: binding; settings: saturating 50 nM compound; Exd 0-100 nM; listed as compound 3
# T3 construct: comprising the homeodomain and the extended fourth helix (residues 238-324); made in house
# T3 sequence (P40427 238-324): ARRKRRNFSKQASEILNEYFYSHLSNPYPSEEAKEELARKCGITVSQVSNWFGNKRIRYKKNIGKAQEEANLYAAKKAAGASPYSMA
# From the text: Protein expression: Drosophila extradenticle (Exd) protein comprising the homeodomain and the extended fourth helix (residues 238-324), as well as ultrabithorax (Ubx) protein homeodomain (residues 233-313 of the Ubx isoform IVa) were expressed and purified after Passner & Aggarwal. The purified proteins Exd and Ubx were used for EMSA studies as described below.
# For the templates, the DNA oligonucleotides depicted in FIGS. 2a, 2b, 2c, and 2d were used, SEQ. ID NOS: 5, 6, 7, and 8, respectively. The DNA upper strand was annealed with the respective matching lower strand and both strands were 5′-labeled with γ-^32P-ATP and polynucleotide kinase, using standard procedures.
# Gel-shift experiments: The master mix contained 50% BSA/50% glycerol, reaction buffer (150 mM potassium glutamate, 50 mM HEPES pH 7.0, 1 mM DTT, and 5′-end labeled DNA (^32P) The final concentrations in the samples were 100 ng/μL BSA and 10% glycerol. Polyamides were kept in subdued lighting whenever possible. Upon addition of the polyamide to 1 pM DNA, the samples were incubated at 25 °C. for 30 minutes in a 20 μL reaction. Next, Exd was added to the samples and incubated for 1 hour at 4° C. A 9% acrylamide/3% glycerol gel was pre-run for 15 min prior to loading. In each lane 15 μL of a 20 μL reaction were loaded while the gel was running to prevent the samples from being diluted. The gels were run at 4° C./185 V. Gels were dried, exposed to a phosphorimager screen, and visualized using a Molecular Dynamics phosphorimager.
# FIGS. 3a and 3b: EMSA studies with polyamides 1-3, Exd and Ubx. In FIG. 3a, each polyamide binds and decreases the mobility of free DNA (lanes 2-18). […] In lanes 2-6,8-12, 14-18, Exd was added in following concentrations: 0, 3, 10, 30, 100 nM. Lanes 19 and 20 contained DNA bearing the Exd-Ubx binding site that was used in X-ray crystal structure determination (see methods above for sequence). In the reaction shown in lane 20, 275 nM Ubx and 30 nM Exd were incubated with DNA. […]
# [7] = molecular target: T4, Drosophila extradenticle (Exd) protein comprising the homeodomain and the extended fourth helix (residues … (Drosophila, UniProt P40427 238-324)); experiment: EMSA (gel shift), 32P-labelled duplex DNA pre-bound with 50 nM compound 3, Exd titrated, 4 °C
# T4 sequence (looked up): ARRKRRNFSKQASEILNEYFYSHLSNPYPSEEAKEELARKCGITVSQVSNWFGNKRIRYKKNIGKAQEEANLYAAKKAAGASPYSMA
# Procedure: (§5) Upon addition of the polyamide to 1 pM DNA, the samples were incubated at 25 °C. for 30 minutes in a 20 μL reaction. […] A 9% acrylamide/3% glycerol gel was pre-run for 15 min prior to loading. In each lane 15 μL of a 20 μL reaction were loaded while the gel was running to prevent the samples from being diluted. The gels were run at 4° C./185 V. Gels were dried, exposed to a phosphorimager screen, and visualized using a Molecular Dynamics phosphorimager.
# (§6) A 47-base-pair duplex DNA with one cognate site was incubated with saturating concentrations (50 nM) of each compound.
# [8] = molecular target: T4, Drosophila extradenticle (Exd) protein …; experiment: EMSA, Exd on DNA with and without compound 2
# Procedure: (§7) The gels were run at 4° C./185 V. Gels were dried, exposed to a phosphorimager screen, and visualized using a Molecular Dynamics phosphorimager.
# as §6
# [9] = molecular target: T4, Drosophila extradenticle (Exd) protein …; experiment: EMSA, Exd titrated on the DNA/compound 2 binary complex (ternary complex), 4 °C; Exd (residues 238-324) on the DNA/compound 2 complex, EMSA
# Procedure: as §7, §6
# [10] = molecular target: T4, Drosophila extradenticle (Exd) protein …; experiment: EMSA, recruitment of Exd to its cognate DNA site by DNA-bound compound 2 compared with Ubx
# Procedure: as §5, §6
# [11] = molecular target: T4, Drosophila extradenticle (Exd) protein …; experiment: EMSA, compared with Exd on the Ubx-DNA complex
# Procedure: as §5, §6
# [12] = relative to matched site TGGTCA
molecule,measurement,setting,value
"Linker 6: Example 7 polyamide-FYPWM conjugate with linker 6, no lysine residue (not fully specified (C-terminus); also: joined via linker 7 (no lysine) to hairpin polyamide)",ability to recruit Exd in comparison to the compound using linker 5,Exd; absence of the lysine residue,did not appreciably alter
50 bp duplex with single optimal polyamide site and adjacent Exd site (Example 7),Kd,"[1]; linker 1 (PEG), 4 C, much reduced at higher temperature",0.6 nM
same,Kd,"[1]; linker 4, 4 C, less than 5-fold decrease at 37 C",0.08 nM
"Linker 7: Example 7 polyamide-FYPWM conjugate with linker 7, no lysine residue (also: conjugated to polyamide via linker 7)",positioning of the test compound with respect to its hydrophobic docking site on the surface of Exd,Exd,do not optimally position the test compound
"Linker 4: Example 7 polyamide-FYPWM conjugate with linker 4, 7-atom linker, ~7 Å (FYPWMK; also: conjugated to polyamide via linker 4)",ability to recruit Exd,Exd,recruit Exd effectively
"Linker 1: Example 7 polyamide-FYPWM conjugate with linker 1, defined 28-atom polyethylene glycol linker, ~33 Å (FYPWMK; also: conjugated to polyamide via linker 1)",ability to recruit Exd,Exd,recruit Exd effectively
same,binding affinity (Exd recruitment),"Exd; higher temperatures (23° C., 37° C.)",dramatically reduced binding affinity
"Linker 8: Example 7 polyamide-FYPWM conjugate with linker 8, lysine linker, ~2.5 Å (FYPWMK; also: conjugated to polyamide via linker 8)",positioning of the test compound with respect to its hydrophobic docking site on the surface of Exd,Exd,do not optimally position the test compound
"Linker 2: Example 7 polyamide-FYPWM conjugate with linker 2, 10-atom linker, ~11 Å (FYPWMK; also: conjugated to polyamide via linker 2)",ability to recruit Exd,Exd,recruit Exd effectively
Cmpd 3 (FYPAAKG),"Relative specificity (square brackets), TGGCCA",[2]; [12],14
same,Kd,"[2]; single base pair mismatch site, 22° C., TKMC buffer, read-out: Equilibrium Dissociation Constants Kd, TGGCCA",12 ± 5 nM
same,Kd,[3],0.86 ± 0.32 nM
same,"Relative specificity (square brackets), AGCTCA",[4]; [12],16
same,Kd,"[4]; single base pair mismatch site, 22° C., TKMC buffer, read-out: Equilibrium Dissociation Constants Kd, AGCTCA",14 ± 5 nM
same,"Relative specificity (square brackets), TGGGCA",[5]; [12],116
same,Kd,"[5]; single base pair mismatch site, 22° C., TKMC buffer, read-out: Equilibrium Dissociation Constants Kd, TGGGCA",≥ 0.1 nM
same,ability to recruit Exd to its cognate DNA site (Exd binding),[6],No binding was observed; also recorded: Neither compound 3 nor 1 showed any ability to recruit Exd
same,ability to stabilize Exd binding to the adjacent cognate DNA site (TGAT),"Exd; 50 nM conjugate pre-incubated with target DNA, data not shown","Neither the parent polyamide lacking the YPWM hook, nor the polyamide bearing an altered hook (FYPAAK) (SEQ. ID. NO: 14) was able to stabilize Exd binding"
"Ac-FYPAAKG (not fully specified (C-terminus); printed as Ac-Phe-Tyr-Pro-Ala-Ala-Lys-Gly-; also: C-terminal Gly amide-bonded to propylamine side chain of polyamide 1, Non-functional (Trp-Met to Ala-Ala) control conjugate; also called conjugate 3; polyamide 3) [Compound 3: hairpin polyamide 1 conjugated to Ac-Phe-Tyr-Pro-Ala-Ala-Lys-Gly-]",binding result,[7],no binding (tested: 100 nM)
"Ac-FYPWMKG (not fully specified (C-terminus); printed as Ac-Phe-Tyr-Pro-Trp-Met-Lys-Gly-; also: C-terminal Gly amide-bonded to propylamine side chain of polyamide 1, Peptide-polyamide conjugate; The peptide carries the Hox YPWM motif; also called conjugate 2; polyamide 2) [Compound 2: hairpin polyamide 1 conjugated to Ac-Phe-Tyr-Pro-Trp-Met-Lys-Gly-]",fold improvement of the affinity of Exd for its cognate site against DNA alone,[8],≥ 200 fold
same,Kd,[9],4.4 nM
same,"fold lower concentration required to recruit Exd, against its natural Hox partner (Ubx)",[10],20 fold
same,fold of Kd of Exd against that for the DNA-Ubx complex,[11],2 fold
